Target: SLAMF7 (CS1, CD319, CRACC) on NK92MI cells (human) (UniProt Q9NQ25)
Assay: flow cytometry, cross-linking of violet-stained NK92MI cells with PKH26-stained P. aeruginosa RP73; controls without molecule 0.29 and 0.31

B1: BiKE B′: ELO scFv [(RTX VL 10-first amino-acids/ELO (VL-VH)] anti-SLAMF7.C4bpβ.scFv (VL-VH) anti-Psl.FLAG (bispecific antibody, not shown: small tags and cut ends)
chain: RSQIVLSQSPAILSASVGDRVTITCKASQDVGIAVAWYQQKPGKVPKLLIYWASTRHTGVPDRFSGSGSGTDFTLTISSLQPEDVATYYCQQYSSYPYTFGQGTKVEIKGGSSRSSSSGGGGSGGGGEVQLVESGGGLVQPGGSLRLSCAASGFDFSRYWMSWVRQAPGKGLEWIGEINPDSSTINYAPSLKDKFIISRDNAKNSLYLQMNSLRAEDTAVYYCARPDGNYWYFDVWGQGTLVTVSSASGGGGSSGGGGSSGGGGSIQEAPKPECEKALLAFQESKNLCEAMENFMQQLKESGMTMEELKYSLELKKAELKAKLLSGGGGSSGGGGSSGGGGSDIQLTQSPSSLSASVGDRVTITCRASQSIRSHLNWYQQKPGKAPKLLIYGASNLQSGVPSRFSGSGSGTDFTLTISSLQPEDFATYYCQQSTGAWNWFGCGTKVEIKGGGGSGGGGSGGGGSGGGGSQVQLQESGPGLVKPSETLSLTCTVSGGSISPYYWTWIRQPPGKCLELIGYIHSSGYTDYNPSLKSRVTISGDTSKKQFSLKLSSVTAADTAVYYCARADWDRLRALDIWGQGTMVTVSS
modifications: Covalent homodimer through the cysteines of the C4bp beta fragment; one chain is given.
B1 gave a % colocalization (violet+PKH26+) of 1.85%.
